Source: patent US20170335333

## Microcin immunity protein (mcsI)
Microcin S peptide
  OD600 growth of E. coli Top10 after induction with 0.125% v/v L-arabinose: the OD600 reading was restored significantly compared to the un-induced and control cultures
McsS-YebF fusion peptide
  OD600 growth of E. coli Top10 after induction with 0.125% v/v L-arabinose: the OD600 reading was restored significantly compared to the un-induced and control cultures
